According to US20250026849A1 (ARCELLX, published 2025):
Changes are numbered by the printed parent chain.

Columns and labels:
[1] = biological target: T1, extracellular domain of human CS1 protein (human, UniProt Q9NQ25 23-226); experiment: phage display panning
T1 construct: Panning target; also called CS1 mature ECD
T1 sequence: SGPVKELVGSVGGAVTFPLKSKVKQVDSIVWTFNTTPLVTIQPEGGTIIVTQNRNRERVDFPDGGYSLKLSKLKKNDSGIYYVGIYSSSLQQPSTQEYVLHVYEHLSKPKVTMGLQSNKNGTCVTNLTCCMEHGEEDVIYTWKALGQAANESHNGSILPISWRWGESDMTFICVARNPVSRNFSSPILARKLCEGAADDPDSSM

[2] = biological target: T2, extracellular domain of human HER2 protein (human, UniProt P04626 23-652); experiment: phage display panning
T2 construct: Panning target; also called HER2 mature ECD; HER2 (ERBB2, CD340)

CD123 = biological target: T3, CD123 (Homo sapiens (Human), UniProt P26951 19-305, limits assumed); experiment: ELISA, format not described; parameters: unit not given here
T3 sequence: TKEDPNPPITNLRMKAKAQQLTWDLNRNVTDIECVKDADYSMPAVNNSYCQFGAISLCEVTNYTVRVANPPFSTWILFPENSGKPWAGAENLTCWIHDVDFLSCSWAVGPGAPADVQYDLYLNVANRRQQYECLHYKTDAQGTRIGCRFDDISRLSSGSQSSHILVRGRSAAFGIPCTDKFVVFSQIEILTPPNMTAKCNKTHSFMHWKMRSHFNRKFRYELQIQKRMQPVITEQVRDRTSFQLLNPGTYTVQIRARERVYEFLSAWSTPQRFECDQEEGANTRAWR

HER2 [3] = biological target: T4, HER2 (human, UniProt P04626 23-652); experiment: ELISA, format not described; parameters: unit not given here
T4 construct: also called ERBB2; CD340

HER2 [4] = biological target: T5, HER2 (human, UniProt P04626 23-652); experiment: ELISA, format not described; parameters: unit not given here
T5 construct: The ELISA is not described; also called ERBB2; CD340

B1: cc01 CS1 ADBD (SEQ ID NO: 780) (designed binder)
chain: MGSWVEFEARLSAIYERLEALGGSEAELAAFEKEIAAFESELQAYKGKGNPEVEKLRRHAAGIRSNLQAYRHN
[1]
  binding result: binds

B2: cc02 CS1 ADBD (SEQ ID NO: 781) (designed binder)
chain: B1 chain with E8F, A9V, S12D, Y15W, K55T, R58F, S65Q, N66K
[1]
  binding result: binds

B3: cc10 CS1 ADBD (SEQ ID NO: 789) (designed binder)
chain: B1 chain with V5M, S12E, Y15W, E16D, K55S, R58F, S65Q, N66H
[1]
  binding result: binds

B4: cc08 CS1 ADBD (SEQ ID NO: 787) (designed binder)
chain: B1 chain with E8N, A9E, S12H, E16L, E19D, K55T, S65W, N66Q
[1]
  binding result: binds

B5: cc09 CS1 ADBD (SEQ ID NO: 788) (designed binder)
chain: MGSWNEFKLELAFIKDWLEALGGSEAELANFEEAIAEFEAGLQGYKGKGNPEVEALRKEAAAIRDELQAYRHN
[1]
  binding result: binds

B6: cc12 CS1 ADBD (SEQ ID NO: 791) (designed binder)
chain: MGSWHHFKMHLAGIKLQLEALGGSEAELAEFEEWIADFEGALQDYKGKGNPEVEALRKEAAAIRDELQAYRHN
[1]
  binding result: binds

B7: eb03 HER2 ADBD (SEQ ID NO: 804) (designed binder)
chain: MGSWAEFRWRLHAIWLQLGALGGSEAELAAFEKEIAAFESELQAYKGKGNPEVEWLRQDAAQIKYILQAYRHN
[2]
  binding result: binds

B8: D-domain SEQ ID NO: 340 (designed binder)
chain: MGSWIEFNMRVLAIEDRLWALGGSEAELAAFEKEIAAFESELQAYKGKGNPEVESLRYEACLDPWSSAAYRHN
CD123
  ELISA_avg: 3.2

B9: D-domain SEQ ID NO: 341 (designed binder)
chain: MGSWIEFHERLWAIEDRLWALGGSEAELAAFEKEIAAFESELQAYKGKGNPEVESLREMAASIRHGLQAYRHN
CD123
  ELISA_avg: 3.4

B10: D-domain SEQ ID NO: 342 (designed binder)
chain: B9 chain with I5F, H8Y, E15D, S55W, M59E, H65S, G66S
CD123
  ELISA_avg: 6

B11: D-domain SEQ ID NO: 343 (designed binder)
chain: MGSWFEFWDRLEAIDDRLFALGGSEAELAAFEKEIAAFESELQAYKGKGNPEVESLRYNAAEIRKELQAYRHN
CD123
  ELISA_avg: 4.9

B12: D-domain SEQ ID NO: 344 (designed binder)
chain: B11 chain with F5H, D9S, E12D, S55Y, Y58G, N59A, E62D, K65A
CD123
  ELISA_avg: 3.8

B13: D-domain SEQ ID NO: 345 (designed binder)
chain: B11 chain with F5Y, D9I, E54D, S55I, Y58D, N59F, E62D, K65T
CD123
  ELISA_avg: 10.4

B14: D-domain SEQ ID NO: 346 (designed binder)
chain: B11 chain with F5H, F19Y, S55F, Y58E, N59E, E62Y, K65E, E66L
CD123
  ELISA_avg: 10.6

B15: D-domain SEQ ID NO: 347 (designed binder)
chain: B11 chain with F5E, E12F, F19W, S55T, Y58N, N59E, K65M, E66A
CD123
  ELISA_avg: 3.1

B16: D-domain SEQ ID NO: 348 (designed binder)
chain: B11 chain with F5W, W8D, E12F, D16T, F19M, Y58E, N59W, E62T, K65M
CD123
  ELISA_avg: 3.5

B17: D domain SEQ ID NO: 800 (designed binder)
chain: MGSWHEFRWRLFAIWQRLHALGGSEAELAAFEKEIAAFESELQAYKGKGNPEVEWLRLDAALIRVMLQAYRHN
HER2 [3]
  ELISA_avg: 10

B18: HER2-binding D domain SEQ ID NO: 823 (designed binder)
chain: MGSWSEFWFRLHAILYRLQALGGSEAELAAFEKEIAAFESELQAYKGKGNPEVETLRDAAAEIRVALQAYRHN
HER2 [4]
  ELISA_avg: 14.8

B19: HER2-binding D domain SEQ ID NO: 824 (designed binder)
chain: B18 chain with S5I, F9V, H12N, Q19Y, T55A, A59S, V65R, A66W
HER2 [4]
  ELISA_avg: 3.91

B20: HER2-binding D domain SEQ ID NO: 825 (designed binder)
chain: MGSWVEFWIRLNAIKYRLLALGGSEAELAAFEKEIAAFESELQAYKGKGNPEVEKLRQDAADIRELLQAYRHN
HER2 [4]
  ELISA_avg: 10.6

B21: HER2-binding D domain SEQ ID NO: 826 (designed binder)
chain: B20 chain with V5T, I9W, N12S, K15V, L19N, K55E, Q58D, D59M, E65S
HER2 [4]
  ELISA_avg: 5.76

B22: HER2-binding D domain SEQ ID NO: 827 (designed binder)
chain: B20 chain with V5W, W8Y, I9L, N12R, K15S, L19Q, K55G, D62E, E65K
HER2 [4]
  ELISA_avg: 5.1

B23: HER2-binding D domain SEQ ID NO: 828 (designed binder)
chain: MGSWWEFHVRLRAIEYRLEALGGSEAELAAFEKEIAAFESELQAYKGKGNPEVEQLRLIAANIRHLLQAYRHN
HER2 [4]
  ELISA_avg: 5.48

B24: HER2-binding D domain SEQ ID NO: 829 (designed binder)
chain: B23 chain with R12K, E19L, Q55D, L58Y, H65Q
HER2 [4]
  ELISA_avg: 4.56

B25: HER2-binding D domain SEQ ID NO: 831 (designed binder)
chain: B23 chain with H8Q, R12A, E19K, Q55N, L58Q, I59L, N62H, H65S, L66V
HER2 [4]
  ELISA_avg: 6.33

B26: HER2-binding D domain SEQ ID NO: 832 (designed binder)
chain: B23 chain with H8Q, R12S, E19T, Q55E, L58Q, I59K, N62R, H65S
HER2 [4]
  ELISA_avg: 9.61

B27: HER2-binding D domain SEQ ID NO: 833 (designed binder)
chain: MGSWWEFNIRLHAIDYRLKALGGSEAELAAFEKEIAAFESELQAYKGKGNPEVELLREKAAQIRAQLQAYRHN
notes: also called eb09
HER2 [4]
  ELISA_avg: 9.75

B28: HER2-binding D domain SEQ ID NO: 834 (designed binder)
chain: B27 chain with N8R, I9V, H12E, L55Y, E58M, Q62T, Q66I
notes: also called eb06
HER2 [4]
  ELISA_avg: 6.82

B29: HER2-binding D domain SEQ ID NO: 835 (designed binder)
chain: MGSWYEFDIRLEAIKYRLSALGGSEAELAAFEKEIAAFESELQAYKGKGNPEVEYLRKKAAVIRSMLQAYRHN
HER2 [4]
  ELISA_avg: 5.35

B30: HER2-binding D domain SEQ ID NO: 836 (designed binder)
chain: B29 chain with Y5W, D8R, K15W, S19H, Y55D, K58I, K59F, V62N, M66K
HER2 [4]
  ELISA_avg: 8.04

B31: HER2-binding D domain SEQ ID NO: 837 (designed binder)
chain: B27 chain with I9V, H12Q, D15K, K19S, L55D, E58K, K59T, Q62H, A65W
HER2 [4]
  ELISA_avg: 5.23

B32: HER2-binding D domain SEQ ID NO: 838 (designed binder)
chain: B27 chain with I9V, H12S, D15R, K19L, L55D, E58A, K59S, Q66M
HER2 [4]
  ELISA_avg: 6.73

B33: HER2-binding D domain SEQ ID NO: 839 (designed binder)
chain: B20 chain with V5W, W8N, I9M, N12S, L19Y, K55I, Q58R, D59L, L66R
notes: also called eb10
HER2 [4]
  ELISA_avg: 3.08

B34: HER2-binding D domain SEQ ID NO: 840 (designed binder)
chain: B27 chain with N8H, H12R, D15K, K19Y, L55D, E58I, K59L, Q62E
HER2 [4]
  ELISA_avg: 14.8
